The values that follow come from the supplement of paper PMC10126150.

± gives the standard deviation of the averaged measurements.
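Also: ATP exposure 15 min at 22 °C before imaging.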

The test system of this data set is ATP. The data set can be described thus: switch fluorescence ratio, 500 uM ATP over buffer (Cy3 cluster intensity, sum of 5 cycles each) (fold (ratio)); higher = stronger signal-on switching upon ATP binding; sequences stand for … in TCGTCGGCAGCGTCAGATGTGTATAAGAGACAGTTTTTTTTTTTTTTTTTTTTTTTTT…TC. Particulars: aptamer strand: ATP DNA aptamer (quencher-CACCTGGGGGAGTATTGCGGAGGAAGG + anchor), 100 nM annealed; ATP concentration: 500 uM. In short, it runs like this:
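Cy3-labelled switching-strand clusters on a modified Illumina MiSeq flow-cell were annealed to 100 nM quencher-labelled ATP aptamer, imaged in selection buffer, then imaged after 15 min with 500 uM ATP at 22 °C. Five buffer/ATP cycles ran, with NaOH stripping and re-annealing between them. The fluorescence ratio is summed target-cycle over summed buffer-cycle Cy3 intensity per cluster, averaged per switch-domain sequence. Clusters outside 100-1000 RFU were excluded.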
For GGTTTCTCTT, the switch fluorescence ratio was 1.003 ± 0.0099.

Regarding CTCAGAGTTT, the switch fluorescence ratio was 1 ± 0.012. For TTTGTTAGCA, the switch fluorescence ratio turned out to be 0.98708 ± 0.0008. For TGATCGGGCG the value was 1.04 ± 0.02; for CGGCTAGGGG, 1.02 ± 0.037.

TGTTTTGGGA: the switch fluorescence ratio is 0.997 ± 0.021. With AAATCGTTCC, the switch fluorescence ratio stood at 2.14 ± 0.082. With GGGCGGCGGG, the switch fluorescence ratio worked out at 1.05 ± 0.053. To ATCTCTCATA belongs 1.01 ± 0.038; to GGGTTCATTC, 0.998 ± 0.026; to CGGGATCGTC, 0.977 ± 0.024. To TAACGTTTAT belongs 1.01 ± 0.032; to TGTAAGGTCG, 1.013 ± 0.01. As for CAAATGGGAC, the switch fluorescence ratio worked out at 1.09 ± 0.061. Turning to ATATTATCAA, the switch fluorescence ratio was 1 ± 0.012. To GGAAAATGGG belongs 1.02 ± 0.065; to AAGTGGTGTT, 0.984 ± 0.028. To CTCTGGGGGC belongs 1.1 ± 0.062; to CGACTGGAAC, 1.207 ± 0.008; to GTATCCTATA, 1 ± 0.017. For CGTGGCAGGG the value was 0.984 ± 0.033. Turning to GGGTATGTTG, the switch fluorescence ratio was found to be 0.978 ± 0.032. With ACTTACGGGC, the switch fluorescence ratio worked out at 1.513 ± 0.0058. For CTCCTCTACC the value was 1.64 ± 0.048; for ATGTGCCTGT, 0.9799 ± 0.0065; for TGTCCGTTGG, 1.05 ± 0.084. Turning to TTATTCCTTT, the switch fluorescence ratio was 0.978 ± 0.042.

AGCAATGCTT: the switch fluorescence ratio turned out to be 3.09 ± 0.29. As for GAACTGGGGC, the switch fluorescence ratio came out at 0.942 ± 0.076. For GGGGCAACGG the value was 1.05 ± 0.12; for GCCTTACATT, 1.01 ± 0.039; for TCCAGTAGTT, 0.982 ± 0.024. GCTCTAGTTT: the switch fluorescence ratio turned out to be 1.02 ± 0.027.

Take TTGGGCCGTT: the switch fluorescence ratio turned out to be 1.01 ± 0.035. As to TTTGGAATAG, the switch fluorescence ratio amounted to 1.06 ± 0.045. To GCCGTTGTGC belongs 0.984 ± 0.069; to TAGATAAATT, 0.9965 ± 0.008; to AAGGATGTTT, 0.9824 ± 0.0033.

For the sequence TGAAGGGTCA, the switch fluorescence ratio was determined as 0.968 ± 0.022.

On to TTTCAGTGCT, for which the switch fluorescence ratio amounted to 0.9947 ± 0.005. For GGGATCTATG the value was 1.02 ± 0.027; for GGGCGTTGTG, 1.05 ± 0.11. For GGCATCGTAG the value was 0.998 ± 0.021; for GGTCTATCCG, 0.983 ± 0.046; for CGGAGGAGGA, 0.993 ± 0.038. To CATGATATGG belongs 0.969 ± 0.02; to TTTTGGCCGT, 1.1 ± 0.15; to TTTAGCTTTT, 1.04 ± 0.01. Regarding GGAACATCTG, the switch fluorescence ratio came out at 1.007 ± 0.0071. GGCATAAGTA: the switch fluorescence ratio was found to be 1.008 ± 0.0054.

On to AATGGGCAAG, for which the switch fluorescence ratio came to 1.05 ± 0.015. For TGCTTTTAGG, the switch fluorescence ratio was 0.996 ± 0.017. To TGGCGCCGGT belongs 0.995 ± 0.01. Take TTTTAGGTGT: the switch fluorescence ratio was 1.28 ± 0.26.

On to TAGAAATGGG, for which the switch fluorescence ratio worked out at 1.19 ± 0.33. To CATTTACCGG belongs 0.996 ± 0.056; to GCTGGGAGTC, 1 ± 0.029. For the sequence GATTGGGGCT, the switch fluorescence ratio came to 1.02 ± 0.039. For AAGACGAGTT the value was 0.9962 ± 0.0022.

With TTAGAGGGTT, the switch fluorescence ratio turned out to be 1.01 ± 0.031. To GACCAACAGT belongs 1.03 ± 0.021; to ATTCAAGGTT, 0.973 ± 0.024. For ATGGGGGGAC the value was 0.987 ± 0.027; for TTGTTGGTCT, 1.009 ± 0.0075; for TAAGGTAATA, 1.03 ± 0.051. Regarding CTTTTAACTC, the switch fluorescence ratio worked out at 1.01 ± 0.024. To TTTTACGTTA belongs 1.23 ± 0.11; to TAGGAGTTGT, 0.995 ± 0.016.

With AATAACGGTG, the switch fluorescence ratio was determined as 1.07 ± 0.019.

Consider ATTAAGGGGA, for which the switch fluorescence ratio was determined as 1.04 ± 0.049. Take CGACACGCTG: the switch fluorescence ratio was determined as 1.05 ± 0.058. As for CGAAGGGTTA, the switch fluorescence ratio is 0.971 ± 0.027. For the sequence GTTGAAATAA, the switch fluorescence ratio was 1 ± 0.047. To TTGGCGCTTG belongs 1.02 ± 0.025. For ATTTAACGGT the value was 1.03 ± 0.022; for GAGAATAGCG, 0.988 ± 0.028; for TTGTTGGGAT, 0.996 ± 0.028. To GCCACGGAGT belongs 0.964 ± 0.015; to AATTCCGGGA, 1.05 ± 0.068. For the sequence TTGTATCTTT, the switch fluorescence ratio came out at 1.03 ± 0.011. For ACGGGGGGAG the value was 1.01 ± 0.035. For TCCTACTACG the value was 1.08 ± 0.026. To TGCTTAGTC belongs 1.01 ± 0.022. In the case of ATGATGAATG, the switch fluorescence ratio stood at 0.975 ± 0.054. As for CTGGGCGGGG, the switch fluorescence ratio is 1.01 ± 0.026. To TTTTGTAGCT belongs 0.963 ± 0.023.

Regarding AATCGGCGCT, the switch fluorescence ratio was determined as 1.01 ± 0.045. Regarding GTGGTTTAAC, the switch fluorescence ratio was 1.04 ± 0.0087. For CTCAAAAACA the value was 1.02 ± 0.028. For GTATGGGTTT the value was 0.975 ± 0.012; for TGGTAGAGAT, 1.01 ± 0.051. For GGCCAATAAT the value was 0.991 ± 0.016; for TGGGGGGAAG, 0.994 ± 0.018. TTTTTTTAT: the switch fluorescence ratio was 1.014 ± 0.01. Consider ATTTGCAGCA, for which the switch fluorescence ratio is 1.02 ± 0.014. For GCAGCTTCGG, the switch fluorescence ratio is 0.984 ± 0.014. To ACCCCCTTCT belongs 1.32 ± 0.048; to TGTGGACCAC, 1.04 ± 0.038. To GAAATTTACT belongs 0.991 ± 0.053. As for AGGGGAGAGT, the switch fluorescence ratio is 1 ± 0.014. For the sequence AGACTTTTAT, the switch fluorescence ratio came to 0.976 ± 0.031.

For GGACTTTTCA, the switch fluorescence ratio worked out at 0.96 ± 0.014. As for TTTTGCGCCG, the switch fluorescence ratio was 1.06 ± 0.06. For AATTGACCCC the value was 1.09 ± 0.023.

CGAGATCGAC: the switch fluorescence ratio was found to be 0.97 ± 0.012. Regarding CAGGGGGCAG, the switch fluorescence ratio was 1.05 ± 0.07. For TTTTCAAGTC the value was 1.05 ± 0.15; for AGAAATCCTT, 0.976 ± 0.036.

With GACATTGTTG, the switch fluorescence ratio amounted to 1.04 ± 0.055. For GTTGTTCTGA the value was 0.9718 ± 0.0033; for TAAAGGTGAA, 1.077 ± 0.0066.

Turning to AAAAGGGGG, the switch fluorescence ratio was determined as 0.976 ± 0.018. On to AGTTGTGTAT, for which the switch fluorescence ratio is 1.01 ± 0.051.

Regarding GGGGTTTAGC, the switch fluorescence ratio came out at 0.996 ± 0.015.

Turning to CGTCTGGGGG, the switch fluorescence ratio was found to be 1.01 ± 0.021. With CCGGGTAAAA, the switch fluorescence ratio turned out to be 1.03 ± 0.057.

In the case of CAGTTTTGGC, the switch fluorescence ratio turned out to be 1.01 ± 0.025.

CTTTGTAGGG: the switch fluorescence ratio amounted to 1.008 ± 0.0029. As for TTTATAAGTT, the switch fluorescence ratio stood at 0.986 ± 0.023.

For TTCAGGGGCA, the switch fluorescence ratio was 1.08 ± 0.033.
